According to patent publication US20250326834A1, “COMBINATION THERAPY OF CLAUDIN 18.2 ANTAGONIST AND PD-1/PD-L1 AXIS INHIBITOR” (SUZHOU TRANSCENTA THERAPEUTICS CO., LTD., priority 2021, published 2025):

System: NCI-H460-CLDN18.2 xenograft tumor
Test: NCI-H460-CLDN18.2 and hPBMC co-inoculation xenograft tumor model
Assay type: in vivo, NOD-SCID mice
Conditions: 10 mg/kg each antibody, i.p. twice a week for 5 weeks
Description: NCI-H460-CLDN18.2 was purchased from Kyinno (Cat #, KC-1450), which was stablely transfected with human CLDN18.2 expression. The tumor cells were routinely sub-cultured twice weekly by trypsin-EDTA treatment (Hyclone). The cells growing in an exponential growth phase were harvested and counted for tumor inoculation. Female SPF grade NOD-SCID mice were inoculated with 3×10^6 NCI-H460-CLDN18.2 cells and 1.5×10^6 human PBMC along with 50% matrigel. Animal were selected and randomized to 4 groups (n=10), approximately 4 hours post inoculation. Animals were then treated with 10 mg/kg Isotype control, 10 mg/kg anti-CLDN18.2 antibody 18B10, 10 mg/kg anti-PD-L1 antibody AM4B6, 10 mg/kg anti-CLDN18.2 antibody 18B10 and 10 mg/kg anti-PD-L1 antibody AM4B6 twice a week for 5 weeks by i.p. injection. Tumor size was measured twice or triple times a week in two dimensions using a caliper (INSIZE) and the volume was expressed in mm^3 using the formula: V=0.5 a×b^2 where a and b are the long and short diameters of the tumor, respectively. Results were analyzed using Prism GraphPad and expressed as mean±S.E.M. Comparisons between two groups were made by T-test, and the difference is considered significant if p is *<0.05 and **<0.01.

B1: AM4B6: anti-PD-L1 antibody; VH SEQ ID NO: 17, VL SEQ ID NO: 18 (antibody, V domains shown)
VH: QVQLVQSGAEVKKPGASVKVSCKASGYVFTDYYMNWVRQAPGQSLEWMGDINPNNAETLYNHKFKGRVTVTVDKSISTAYMELSRLRSDDTAVYYCVKWGDGPFAYWGQGTLVTVSS
VL: DIQMTQSPSSLSASVGDRVTITCKASQNVGAAVAWYQQKPGKAPKLLIYSVSDRYTGVPSRFSGSGSGTDFTLTISSLQPEDIATYYCQQYSNYPTFGQGTKLEIK
B1 was tested, and the “effect on tumor growth compared with isotype control” value was “no significant impact on tumor growth”, the TGI (Day 29) was 17.6% and the Tumor size (Day 29, mean ± S.E.M.) was 557.06 ± 67.47 mm^3.
